Test results from PMC5080983 (Nature communications, 2015).
Where no end group is shown, it is not given here. [ ]: non-standard residue; d: D form. Arg(Me2a) = CN(C)C(=N)NCCC[C@H](N)C(=O)O; Arg(Me2s) = CN=C(NC)NCCC[C@H](N)C(=O)O; fluorescent label = not defined here

Columns and labels:
Assay in all cases: fluorescence polarisation
[1] = biological target: T1, histone H3 tail peptide (1–18) symmetrically dimethylated at Arg2 (H3R2me2s) (UniProt P68431 2-19)
T1 peptide (looked up): A[Arg(Me2s)]TKQTARKSTGGKAPRK

[2] = biological target: T2, histone H3 tail peptide (1–18) asymmetrically dimethylated at Arg2 (H3R2me2a) (UniProt P68431 2-19)
T2 peptide (looked up): A[Arg(Me2a)]TKQTARKSTGGKAPRK

GST-PHD1 W335A of KDM5A = biological target: T3, GST-PHD1 W335A of KDM5A (UniProt P29375 291-347, W335A)
T3 sequence (looked up): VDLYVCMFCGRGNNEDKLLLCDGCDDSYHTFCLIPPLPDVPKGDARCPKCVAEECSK

Row | Binder | fold reduction of binding affinity against unmodified H3 [1] [fold] | fold reduction of binding affinity against unmodified H3 [2] [fold] | Kd (GST-PHD1 W335A of KDM5A) [µM]
1 | GST-PHD1_(291–347) of KDM5A (domain or fragment, UniProt P29375 291-347, looked up) VDLYVCMFCGRGNNEDKLLLCDGCDDSYHTFCLIPPLPDVPKGDWRCPKCVAEECSK | ~5 | ~5 | –
2 | ARTKQTARKSTGGKAPRK-{fluorescent label} (peptide, UniProt P68431 2-19, looked up, reading uncertain) [histone H3 tail peptide H3_(1–18), unmethylated Lys4 (H3K4me0)] | – | – | > 100
